Here are results for 7 molecules from patent US20250221936A1, “ENGINEERED HEMICHANNELS, ENGINEERED VESICLES, AND USES THEREOF” (VIRGINIA TECH INTELLECTUAL PROPERTIES, INC., priority 2018, published 2025).

Data set [1] relates to EVs isolated from cow milk. In words: Milk EV loading with Calcein AM. The conditions noted are these: 0.1 and 1 μM. On the procedure: EVs were isolated from cow milk and loaded with neutral non-fluorescent Calcein AM (10 μM) for 48 hours at 37 C in PBS buffer at pH 8.5 (FIG. 30A). […] Purity and integrity of exosomes isolated from cow milk was confirmed by negative stain electron microscopy (EM). FIG. 30B) illustrates an exosome isolated from cow milk. Scale bar=50 nm. The methods described herein of isolation from milk were adapted to obtain high yields of EV, taking particular care not to cause rapid and/or large-scale precipitation of milk casein, as well as in centrifugation steps, which can reduce EV yields from milk.
An exemplar of these methods is shown in FIGS. 31A-31C wherein Milk EVs incubated with Calcein AM show time-(FIG. 31A), pH-(FIG. 31B) and concentration-dependent effects on uptake of Calcein by EVs. Important to this method in the case of Calcein AM, are the multiple chemical groups linked by ester bonds to the molecule, which shield it's negatively charged moieties. Cleavage of these groups by ester bond breaking activities within EVs results in Calcein becoming negatively charged, fluorescent and retained within the EV—as exemplified by the green spots seen in most figure panels in FIG. 31. In FIG. 31A EVs are illustrated that were incubated for 1, 2 or 3 hours in PBS at 37 C at pH 7.4 with Calcein AM (5 μM). […]

The next data set deals with Connexin 43 hemichannels (Homo sapiens, UniProt P17302). The format is cell-based. The conditions noted are these: 0.1 mM Ca^2+; Gap19 (200 μM). The method, then: Media containing 0.1 mM Ca^2+ was used to open Cx43 hemichannels in the presence of 50 μM alphaCT11 peptide and/or the hemichannel blockers; Gap19 (200 μM) and carbenoxolone ([…]).
The subject of data set [2] is HC (hemichannel) activity. In words: Hemichannel block in perfused hearts. More on the design: species or system mouse. The conditions noted are these: 2 micromolar for 20 minutes before biotin-alphaCT11 infusion. On the procedure: Briefly, isolated mouse hearts were perfused with 2 micromolar carbenoxolone for 20 minutes to block HC (hemichannel) activity prior to a 20 minute infusion with biotinylated alpha CT11 (biotin-alphaCT11) according to the method described in Example 20. […] Biotinylated alpha CT11 was detected and measured on LV cryosections by streptavidin Alexa647 as noted in association with FIGS. 18A-18E.

Data set [3] is classed as in vitro ADME. From the text:
Despite efficacy of these peptides being delivered as unprotected peptide formulations, particularly when devlivered topically, delievery via many routes can be impeaded by degredation inside the body. Many other biologic and small molecule therapeutics also suffer from similar degradeation issues. Indeed, most unprotected short peptides and polynucleotides (e.g. miRNAs) are rapidly degraded in body fluids in vivo, thereby limiting the interest of the pharmaceutical industry in such molecules. This consideration is particularly relevant in pathologic situations, such as the heart post-MI, where hypoxia, oxygen free radicals, and […] prompt upregulation of degradation pathways. […] Protection by being loaded inside of an engineered vesicle can reduce degredation and/or can facilitate delivery of the cargo by forming channels with connexons present in cell membranes. See e.g. FIG. 17.

For a further data set, the target named is T1, ZO-1 PDZ2 (Homo sapiens, UniProt Q07157).
T1 construct: the second of the three PDZ (PDZ2) domains of ZO-1; made in house; host or cells: E. coli BL21
T1 sequence (Q07157 186-264 limits assumed): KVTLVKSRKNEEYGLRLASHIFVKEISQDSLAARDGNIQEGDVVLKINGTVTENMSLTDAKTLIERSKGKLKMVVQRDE
As to the kind of experiment: Protein thermal shift assay, ZO-1 PDZ2. It is filed as binding. The conditions noted are these: 500 μg/ml protein, 25-100 μM peptide. On the procedure: Thermal stability of recombinant GST-PDZ2 or Cx43 CT in the presence or absence of peptides was determined in a 96-well format. Each assay well was composed of 500 μg/ml protein, 25-100 μM of each peptide in PBS buffer, pH7.4. All assays were performed independently six times. Samples were generally prepared in 96-well plates at final volumes of 20 μL. The fluorescent dye SYPRO Orange (5000× concentrate in DMSO, ThermoFisher, S6650) was added to a final concentration of 8X. Reactions were run on QuantStudio 6 Flex Real-Time PCR system (Applied Biosystems, part of Life Technologies Corporation, CA) according to the manufacturer's recommendations using a melt protocol in 0.05-degree/see increments from 25° C. to 95° C. The Reporter Dye was “ROX” and quencher Dye and passive reference were selected as “None” for the melt curve according to manufacturer's instructions. The data were analyzed using Protein Thermal Shift™ Software v1.3 package (Applied Biosystems, CA).

The next data set addresses T2, GST-Cx43 CT (Rattus norvegicus, UniProt P08050).
T2 construct: pGEX-6-P2 Cx43 CT amino acids 255-382; made in house; host or cells: E. coli BL21
As to the kind of experiment: EDC cross-linking of kinase reaction mixtures, Cx43 CT. It is filed as binding. The conditions noted are these: 5, 10 and 25 μM. On the procedure: To characterize the interaction between the Cx43 CT substrate and peptides, the in vitro kinase assay was performed as above with modification and the constituents then subjected to a cross-linking reaction. The assay buffer used was 20 mM 3-(N-morpholino) propanesulfonic acid (MOPS), pH 7.2. All other reagents present in the kinase reaction were maintained as described above. The reaction was allowed to proceed at 37° C. for 15 minutes. Afterwards, the carbodiimide crosslinker 1-Ethyl-3-(3-dimethylaminopropyl) carbodiimide HCl (EDC) (Thermo, 22980) was added to each solution for a final concentration of 20 mM. The solution was allowed to cross-link for one hour at room temperature. The reaction was stopped by the addition of 4×LDS loading buffer, boiled for 5 minutes and subsequently separated by PAGE. The resulting gel was stained in Coomassie brilliant blue (Sigma, B0770) for two hours and destained in a solution of 4% methanol 7% acetic acid overnight. Gel bands were subsequently excised for mass spectrometric analysis. For the direct interaction between protein and peptides, PBS, pH 7.5 was used as the coupling buffer. The protein (50 μg/ml) and peptide (25 μM) were allowed to react at room temperature for one hour before EDAC was added to the reaction mixture. The reaction was Western blotted for Cx43, GST or NeutroAvidin. […]

A further data set has as its system Hela cells. In words: Cellular uptake of RhodB-aCT11 peptides. The format is cell-based. The conditions noted are these: 200 to 2000 μM, 30 or 90 minutes, 37 C. From the text:
Cells can take up the peptide, cytoplasmic esterases will cleave the allyl groups converting the peptide to RhodB-aCT11. RhodB-aCT11-Est, or any chemically modified drug molecule designed for cell uptake using ester bonded groups or related chemical modifications, can be packaged as cargo into EVs and exported by the cell into the media. EVs loaded with cargo molecules by this method can then be isolated using standard protocols and used in the treatment and other methods detailed herein.
Monolayers of Hela cells incubated with fluorescent-tagged RhodamineB-aCT11-Est, a cell-permeant peptide with allyl groups linked by ester bonds at aspartic (D) and glutamic (E) acid residues, as well as its carboxyl terminus are shown in FIG. 34A. The cells were incubated for 30 or 90 minutes at 37 C at pH 7.4 with different concentrations of peptides between 200 and 2000 μM. […] Cellular uptake can be observed in FIG. 34A to be particularly evident following 90 minutes at higher peptide concentrations (i.e., >1000 μM). […] RhodB-aCT11-Est taken up in this manner by cells can be packaged as cargo into EVs and following isolation can these EVs be used in treatment and other methods detailed herein.

Data set [4] has as its target Cx43 CT (Connexin 43 carboxyl terminus, amino acids 255 to 382) (UniProt P08050 255-382, limits assumed). In words: cell-based or functional assay.

No end group written: not given here.

Sequence of Connexin 43 hemichannels (P17302 2-382 limits assumed): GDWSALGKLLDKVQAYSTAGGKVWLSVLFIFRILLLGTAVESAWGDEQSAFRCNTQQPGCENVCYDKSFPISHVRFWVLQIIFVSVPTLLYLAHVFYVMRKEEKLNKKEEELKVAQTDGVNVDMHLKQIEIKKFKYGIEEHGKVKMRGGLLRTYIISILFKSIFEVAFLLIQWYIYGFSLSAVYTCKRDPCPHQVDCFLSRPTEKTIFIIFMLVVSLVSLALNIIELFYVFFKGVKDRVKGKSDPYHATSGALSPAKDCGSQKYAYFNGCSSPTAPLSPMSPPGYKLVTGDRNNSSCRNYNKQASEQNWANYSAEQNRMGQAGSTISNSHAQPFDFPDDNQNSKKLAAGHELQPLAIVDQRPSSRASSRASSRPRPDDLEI
T2 sequence (P08050 255-382): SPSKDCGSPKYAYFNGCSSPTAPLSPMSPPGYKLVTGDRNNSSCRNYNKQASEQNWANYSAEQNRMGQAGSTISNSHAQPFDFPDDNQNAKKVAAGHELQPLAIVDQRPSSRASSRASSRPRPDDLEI
Sequence of Cx43 CT (Connexin 43 carboxyl terminus, amino acids 255 to 382) (P08050 255-382 limits assumed): as the sequence (P08050 255-382) above

As to `O=S(=O)(F)Cc1ccccc1` [PMSF], in data set [1], the “Calcein uptake into and retention within milk EVs” value is “respectively inhibited and blocked”.
On to `CC1(C)[C@@H](OC(=O)CCC(=O)O)CC[C@]2(C)[C@H]3C(=O)C=C4[C@@H]5C[C@@](C)(C(=O)O)CC[C@]5(C)CC[C@@]4(C)[C@]3(C)CC[C@@H]12` [carbenoxolone], for which the “alphaCT11 uptake in presence of hemichannel blocker” value on Connexin 43 hemichannels is recorded as “Dramatically lower levels of peptide uptake”. The “cytoplasmic levels of alpha CT11 in myocytes” value in data set [2] is given as “significant reductions (p<0.05) in cytoplastic levels of alpha CT11”.
“Gap19: Cx43 hemichannel blocker (KQIEIKKFK; Gap19; UniProt P17302 128-136, looked up, fragment)”: the “alphaCT11 uptake in presence of hemichannel blocker” value with Connexin 43 hemichannels is reported as “Dramatically lower levels of peptide uptake”.
Take RPRPDDLEI [alpha CT11, RPRPDDLEI]: the “time to degradation in blood serum” value in data set [3] is given as “about 30 minutes”.
Take “RQPKIWFPNRRKPWKK LPAARIAPR (RQPKIWFPNRRKPWKKLPAARIAPR) [M4 scram., reference compound]”: in the data set with ZO-1 PDZ2, the “PDZ2 melt temperature (Tm)” value was “PDZ2 interaction incompetent”. For the same molecule, the “EDC cross-linking to Cx43 CT” value with GST-Cx43 CT is “no evidence of cross-linking”.
Consider “RhodB-aCT11: fluorescently tagged RhodamineB aCT11 peptide (RPRPDDLEI) without ester bonded groups (also: RhodamineB label, site not given here)”, for which the cellular uptake entry in the data set on Hela cells was “little evidence for uptake of RhodB-aCT11 is observed”; with Hela cells (listed as RhodamineB aCT11), “does not indicate cellular uptake”.
As for RQPKIWFPNRRKPWKKRPRPDDLEI (not fully specified) [alpha CT1], the “Cx43 S368 phosphorylation (PKC-ε kinase assay, blots of pS368 over total Cx43)” value in data set [4] was about 3 fold.
